Reference: article PMC5027585, “TSPO ligands stimulate ZnPPIX transport and ROS accumulation leading to the inhibition of P. falciparum growth in human blood” (Scientific Reports, 2016)
Several values for one entry are separate records, joined by “and”; a condition that tells them apart may be missing. Equal entries are not always repeated.

Molecular target: the molecule itself
Assay: SDS-PAGE and immunoblot (SDS-resistant forms); ghosts of healthy and infected RBCs in 5P8 buffer, solubilised in 1% Triton X-100, denaturing SDS-PAGE, immunoblot; oligomeric state read from the size of the bands

B1: TranSlocator PrOtein 2 (TSPO2) (natural protein, human (endogenous in red blood cells), UniProt Q5TGU0 1-170, looked up)
chain: MRLQGAIFVLLPHLGPILVWLFTRDHMSGWCEGPRMLSWCPFYKVLLLVQTAIYSVVGYASYLVWKDLGGGLGWPLALPLGLYAVQLTISWTVLVLFFTVHNPGLALLHLLLLYGLVVSTALIWHPINKLAALLLLPYLAWLTVTSALTYHLWRDSLCPVHQPQPTEKSD
notes: TSPO2, human, second TSPO isoform, endogenous in mature red blood cells; detected with a rabbit antibody against the 13 C-terminal residues of hTSPO2; also called hTSPO2; source: endogenous, human red blood cell membranes (ghosts) or Triton X-100 lysate of healthy and P. falciparum-infected RBCs
- stoichiometry N: 4 and 2
